Among the data in patent US20160339092A1 (IMMATICS BIOTECHNOLOGIES, published 2016) are peptide exchange yield values, retold here.

The target in the test is T1, HLA-A*02:01 (human).
T1 construct: complexes captured on streptavidin plates and detected with anti-b2m; also called peptide-receptive MHC molecules
Kind of test: UV-exchange MHC ELISA; ++ = yield >=20%. From the text:
Candidate peptides for T cell based therapies according to the present invention were further tested for their MHC binding capacity (affinity). The individual peptide-MHC complexes were produced by UV-ligand exchange, where a UV-sensitive peptide is cleaved upon UV-irradiation, and exchanged with the peptide of interest as analyzed. Only peptide candidates that can effectively bind and stabilize the peptide-receptive MHC molecules prevent dissociation of the MHC complexes. To determine the yield of the exchange reaction, an ELISA was performed based on the detection of the light chain (β2m) of stabilized MHC complexes. The assay was performed as generally described in Rodenko et al. (Rodenko et al., 2006).
96 well MAXISorp plates (NUNC) were coated over night with 2 ug/ml streptavidin in PBS at room temperature, washed 4× and blocked for 1 h at 37° C. in 2% BSA containing blocking buffer. Refolded HLA-A*02:01/MLA-001 monomers served as standards, covering the range of 15-500 ng/ml. Peptide-MHC monomers of the UV-exchange reaction were diluted 100 fold in blocking buffer. Samples were incubated for 1 h at 37° C., washed four times, incubated with 2 ug/ml HRP conjugated anti-β2m for 1 h at 37° C., washed again and detected with TMB solution that is stopped with […]. Absorption was measured at 450 nm. […]
In general terms: In an ELISA, binding on a coated surface is turned into a signal by an enzyme label.

As to ALLNAILHSA [ALLNAILHSA (SEQ ID NO: 132)], the peptide exchange yield fell in the range of 20 to 50%.
